{
  "source": "patent US20170290886",
  "tested_on": "Recombinant GST-tagged MeCP2 protein (Prospec)",
  "data": [
    {"substance": "His-tagged PIAS1 protein", "values": [
      {"measurement": "MeCP2 SUMOylation (in vitro SUMOylation assay with purified proteins)", "result": "MeCP2 SUMOylation occurred when E1, E2, PIAS1 (the protein inhibitor of activated STAT1) and MeCP2 proteins were added"}
    ]}
  ]
}
